From patent US20200157212A1 (Pfizer, published 2020)

T1: Terbium (Tb) labeled-SNAP tagged ROBO2 expressed on HEK293 cells (Homo sapiens (Human), UniProt Q9HCK4 22-1378, terbium label on the SNAP tag)
T1 construct: also called Tb-labeled ROBO2 cells; ROBO2 expressing cells; not shown: SNAP tag
T1 sequence: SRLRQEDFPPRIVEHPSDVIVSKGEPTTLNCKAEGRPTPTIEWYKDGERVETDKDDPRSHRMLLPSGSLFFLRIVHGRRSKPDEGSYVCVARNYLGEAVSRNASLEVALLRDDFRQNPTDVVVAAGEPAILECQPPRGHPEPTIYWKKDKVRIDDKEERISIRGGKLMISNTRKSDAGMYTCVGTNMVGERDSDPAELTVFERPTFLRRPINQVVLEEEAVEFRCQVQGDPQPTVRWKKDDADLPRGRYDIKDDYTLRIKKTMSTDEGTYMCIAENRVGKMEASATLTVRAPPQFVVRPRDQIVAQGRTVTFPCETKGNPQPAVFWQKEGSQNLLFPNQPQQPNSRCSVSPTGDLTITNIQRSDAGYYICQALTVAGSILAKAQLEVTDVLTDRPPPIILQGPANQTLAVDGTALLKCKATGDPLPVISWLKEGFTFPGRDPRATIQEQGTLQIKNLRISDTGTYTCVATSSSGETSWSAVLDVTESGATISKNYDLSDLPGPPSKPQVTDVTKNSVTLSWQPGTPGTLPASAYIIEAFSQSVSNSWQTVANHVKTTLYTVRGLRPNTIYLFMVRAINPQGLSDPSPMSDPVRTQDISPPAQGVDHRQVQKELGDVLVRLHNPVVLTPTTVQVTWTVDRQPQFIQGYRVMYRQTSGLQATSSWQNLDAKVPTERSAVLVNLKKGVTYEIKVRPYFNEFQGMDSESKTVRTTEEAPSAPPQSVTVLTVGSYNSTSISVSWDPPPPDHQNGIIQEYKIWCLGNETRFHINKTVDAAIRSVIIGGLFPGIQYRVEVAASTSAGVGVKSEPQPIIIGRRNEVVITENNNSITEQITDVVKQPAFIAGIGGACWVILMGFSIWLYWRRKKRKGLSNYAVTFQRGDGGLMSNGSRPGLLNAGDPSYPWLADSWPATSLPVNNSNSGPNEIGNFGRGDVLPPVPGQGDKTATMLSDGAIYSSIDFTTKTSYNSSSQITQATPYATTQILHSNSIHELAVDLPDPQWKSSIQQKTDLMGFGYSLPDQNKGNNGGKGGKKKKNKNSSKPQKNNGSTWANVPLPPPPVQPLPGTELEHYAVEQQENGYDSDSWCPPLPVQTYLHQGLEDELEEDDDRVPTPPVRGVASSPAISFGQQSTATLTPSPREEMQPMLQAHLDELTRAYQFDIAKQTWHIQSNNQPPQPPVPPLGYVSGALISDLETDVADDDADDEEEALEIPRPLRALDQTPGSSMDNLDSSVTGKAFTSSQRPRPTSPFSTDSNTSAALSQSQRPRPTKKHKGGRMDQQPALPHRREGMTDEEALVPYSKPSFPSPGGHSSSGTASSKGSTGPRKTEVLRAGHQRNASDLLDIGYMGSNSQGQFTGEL

T2: Human ROBO2 overexpressed on HEK293 cells (human, UniProt Q9HCK4 22-1378)
T2 construct: also called ROBO2 cells; native ROBO2
T2 sequence: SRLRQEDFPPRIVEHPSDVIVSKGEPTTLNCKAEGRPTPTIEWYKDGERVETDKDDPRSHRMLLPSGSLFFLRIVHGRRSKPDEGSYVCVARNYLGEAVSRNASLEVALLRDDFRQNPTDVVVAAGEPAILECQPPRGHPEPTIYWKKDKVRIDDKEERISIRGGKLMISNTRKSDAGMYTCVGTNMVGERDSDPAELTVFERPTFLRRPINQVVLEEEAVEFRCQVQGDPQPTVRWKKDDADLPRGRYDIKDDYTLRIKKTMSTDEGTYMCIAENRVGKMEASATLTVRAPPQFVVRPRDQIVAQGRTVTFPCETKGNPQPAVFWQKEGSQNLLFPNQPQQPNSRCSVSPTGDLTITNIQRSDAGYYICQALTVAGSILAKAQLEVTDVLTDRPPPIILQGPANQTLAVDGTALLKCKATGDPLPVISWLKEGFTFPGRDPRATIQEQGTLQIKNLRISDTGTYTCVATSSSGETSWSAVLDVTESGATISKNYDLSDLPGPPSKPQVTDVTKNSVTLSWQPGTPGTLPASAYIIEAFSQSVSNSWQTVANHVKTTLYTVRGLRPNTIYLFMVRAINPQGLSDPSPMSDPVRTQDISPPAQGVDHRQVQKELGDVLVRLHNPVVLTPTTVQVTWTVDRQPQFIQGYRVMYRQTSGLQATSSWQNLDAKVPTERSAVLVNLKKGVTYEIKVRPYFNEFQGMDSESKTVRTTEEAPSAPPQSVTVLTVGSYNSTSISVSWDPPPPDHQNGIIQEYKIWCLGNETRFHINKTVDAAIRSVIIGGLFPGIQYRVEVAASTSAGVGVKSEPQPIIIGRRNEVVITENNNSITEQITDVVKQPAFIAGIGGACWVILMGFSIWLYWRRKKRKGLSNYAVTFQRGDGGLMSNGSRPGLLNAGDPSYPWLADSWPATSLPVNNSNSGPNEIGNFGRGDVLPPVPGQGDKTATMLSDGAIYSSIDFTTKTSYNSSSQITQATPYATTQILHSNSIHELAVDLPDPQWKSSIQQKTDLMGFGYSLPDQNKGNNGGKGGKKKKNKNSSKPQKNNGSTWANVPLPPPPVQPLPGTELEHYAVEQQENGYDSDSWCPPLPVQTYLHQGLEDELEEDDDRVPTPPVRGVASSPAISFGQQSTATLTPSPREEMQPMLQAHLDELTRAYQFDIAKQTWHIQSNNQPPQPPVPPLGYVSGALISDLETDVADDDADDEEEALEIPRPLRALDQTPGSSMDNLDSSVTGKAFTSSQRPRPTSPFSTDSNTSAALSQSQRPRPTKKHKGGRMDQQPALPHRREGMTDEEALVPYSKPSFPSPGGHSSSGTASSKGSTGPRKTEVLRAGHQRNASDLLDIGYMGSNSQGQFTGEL


Key:
[1] = target: T1, Terbium (Tb) labeled-SNAP tagged ROBO2 …; experiment: HTRF, 5 nM d2-SLIT2-N on Tb-SNAP-ROBO2 HEK293 cells, 1 nM antibody
Procedure, shortened: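 Tb-SNAP-ROBO2 HEK293 cells incubated 1 hour with 5 nM d2-SLIT2-N, with 1 nM anti-ROBO2 antibody or none (maximal signal); cells alone gave minimum. HTRF read at 665/620 nm; IC50 series used 11-point, 5-fold dilutions from 1500 nM.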

[2] = target: T3, Human ROBO1 RSK mutant overexpressed on HEK293 cells (human, UniProt Q9Y6N7 26-1651); experiment: flow cytometry, Geo MFI ROBO1-RSK/ROBO2-KSR HEK293 cells, 2.5 µg/ml
T3 construct: K137R and R139K already in the entry; also called ROBO1-RSK cells

[3] = target: T2, Human ROBO2 overexpressed on HEK293 …; experiment: flow cytometry, Geo MFI ROBO2/ROBO1 HEK293 cells, 2.5 µg/ml
Method: Binding of the antibodies was detected using a secondary fluorochrome conjugated anti-human IgG F(ab′)₂ antibody and samples were analyzed on a Fortessa cytometer (BD Biosciences). The fold ROBO2 selectivity was calculated as the geometric mean fluorescence intensity (Geo MFI) with ROBO2 cells/Geo MFI with ROBO1 cells. A fold change higher than 3 was considered to be ROBO2 specific (Table 2, Fold Selectivity). Some affinity matured clones had increased ROBO1 reactivity, for example Abcs 55, CTI-R2-10 and CTIR2-13.
HTRF assays were run with 5 nM d2-labeled SLIT2-N and antibodies were added at 1 nM. […] Antibodies derived from chain (Abcs series) or CDR shuffling (CTIR-2 series) were evaluated in 11-point, 5-fold dilution series with a top concentration of 1500 nM, N.T. = not tested; ^cFold selectivity was calculated as Geometric Mean Fluorescent Intensity (Geo MFI) of ROBO2/Geo MFI of ROBO1 binding. […] Outcomes: results are listed in order of assays listed in the table (left to right), I.A. = Improved Affinity

T3 sequence (Q9Y6N7 other isoform, or with tags, fused parts or gaps mutant limits assumed): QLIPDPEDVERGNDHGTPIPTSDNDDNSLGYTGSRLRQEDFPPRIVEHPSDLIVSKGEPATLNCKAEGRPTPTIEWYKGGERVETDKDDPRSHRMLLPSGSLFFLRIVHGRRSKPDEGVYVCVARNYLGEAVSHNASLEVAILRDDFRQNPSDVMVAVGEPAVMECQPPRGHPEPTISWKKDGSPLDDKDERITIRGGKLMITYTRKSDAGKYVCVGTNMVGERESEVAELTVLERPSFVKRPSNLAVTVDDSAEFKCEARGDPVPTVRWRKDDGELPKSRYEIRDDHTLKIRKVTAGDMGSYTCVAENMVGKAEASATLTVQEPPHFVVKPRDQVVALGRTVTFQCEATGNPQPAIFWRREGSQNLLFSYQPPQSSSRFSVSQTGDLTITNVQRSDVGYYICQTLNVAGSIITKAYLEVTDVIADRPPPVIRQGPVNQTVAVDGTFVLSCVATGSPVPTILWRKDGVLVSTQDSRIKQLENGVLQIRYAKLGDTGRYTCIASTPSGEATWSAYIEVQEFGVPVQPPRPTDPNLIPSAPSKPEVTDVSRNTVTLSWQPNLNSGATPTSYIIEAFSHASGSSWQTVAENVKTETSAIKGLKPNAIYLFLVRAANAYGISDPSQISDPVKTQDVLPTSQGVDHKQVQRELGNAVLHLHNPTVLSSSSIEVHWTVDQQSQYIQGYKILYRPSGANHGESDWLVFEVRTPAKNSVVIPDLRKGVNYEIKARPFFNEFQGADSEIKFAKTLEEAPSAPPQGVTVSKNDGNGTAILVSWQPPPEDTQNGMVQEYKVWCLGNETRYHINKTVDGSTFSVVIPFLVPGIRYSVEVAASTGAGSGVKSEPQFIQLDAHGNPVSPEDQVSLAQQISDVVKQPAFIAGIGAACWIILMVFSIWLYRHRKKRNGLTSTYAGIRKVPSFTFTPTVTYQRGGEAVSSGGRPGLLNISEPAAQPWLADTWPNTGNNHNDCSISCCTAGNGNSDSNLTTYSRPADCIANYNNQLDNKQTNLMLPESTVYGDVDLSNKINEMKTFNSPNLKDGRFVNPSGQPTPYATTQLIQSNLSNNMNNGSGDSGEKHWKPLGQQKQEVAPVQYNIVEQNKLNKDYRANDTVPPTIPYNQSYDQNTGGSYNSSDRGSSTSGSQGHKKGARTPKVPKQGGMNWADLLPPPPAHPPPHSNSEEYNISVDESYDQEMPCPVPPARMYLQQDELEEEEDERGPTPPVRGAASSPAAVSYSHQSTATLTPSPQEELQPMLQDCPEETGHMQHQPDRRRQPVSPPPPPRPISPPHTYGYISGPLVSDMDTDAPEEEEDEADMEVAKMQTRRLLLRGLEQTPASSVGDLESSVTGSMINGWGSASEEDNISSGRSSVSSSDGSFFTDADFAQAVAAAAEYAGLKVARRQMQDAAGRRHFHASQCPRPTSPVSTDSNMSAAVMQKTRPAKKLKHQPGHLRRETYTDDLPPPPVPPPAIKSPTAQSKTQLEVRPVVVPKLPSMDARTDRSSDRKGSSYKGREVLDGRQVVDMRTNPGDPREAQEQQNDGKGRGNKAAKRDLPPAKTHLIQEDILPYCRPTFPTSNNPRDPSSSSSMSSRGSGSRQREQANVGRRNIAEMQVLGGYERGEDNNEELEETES

| HTRF Ratio [1] | Fold Selectivity for RSK/KSR [2] [fold] | Fold Selectivity for ROBO2/ROBO1 [3] [fold] | Binder |
| --- | --- | --- | --- |
| 13800 | – | – | 93H2 (antibody, human IgG1, kappa, V domains shown, also called parental 93H2; 93H2 mAb) VH: EVQLVQSGAEVKKPGASVKVSCKASGYTFTGYYMHWVRQAPGQGLEWMGWINPNSGATNFPQKFQGRVTMTRDTSITTAYMDLSRLRSDDTAVYYCARESGDDAFDIWGQGTMVTVSS VL: not shown |
| 3050 | 1.5 | 1.5 | Abcs55 (antibody, human IgG1, kappa, V domains shown, chain-shuffled IgG) VH: EVQLVQSGAEVKKPGASVKVSCKASGYTFTGYYMHWVRQAPGQGLEWMGWINPKDGDTEFPQKFQGRVTMTRDTSITTAYMDLSRLRSDDTAVYYCARESGDDAFDIWGQGTMVTVSS VL: DIVMTQSPSSLSASVGDRVTITCRASQSISSYLNWYQQKPGKAPKLLIYAASSLQYGVPSRFSGSGSGTDFTLTISSLQPEDFATYYCQQSYSTSFGGGTKVEIKR |
| 3710 | > 100 | 23.9 | CTIR2-14 (antibody, human IgG1, kappa, V domains shown, CDR-shuffled IgG) VH: EVQLVQSGAEVKKPGASVKVSCKASGYTFRGYAMHWVRQAPGQGLEWMGWIDPRTGLTKFPQKFQGRVTMTRDTSITTAYMDLSRLRSDDTAVYYCARESGDDAFDIWGQGTMVTVSS VL: DIVMTQSPSSLSASVGDRVTITCRASQKISSYLNWYQQKPGKAPKLLIYAASSLQYGVPSRFSGSGSGTDFTLTISSLQPEDFATYYCQQSLELGFGGGTKVEIKR |
| 3730 | 66.5 | 6.2 | CTIR2-16 (antibody, human IgG1, kappa, V domains shown, CDR-shuffled IgG) VH: EVQLVQSGAEVKKPGASVKVSCKASGYTFRGYAMHWVRQAPGQGLEWMGWIDPRTGLTKFPQKFQGRVTMTRDTSITTAYMDLSRLRSDDTAVYYCARESGDDAFDIWGQGTMVTVSS VL: DIVMTQSPSSLSASVGDRVTITCRASQKISSYLNWYQQKPGKAPKLLIYAASSLQYGVPSRFSGSGSGTDFTLTISSLQPEDFATYYCQQSVGLFFGGGTKVEIKR |
| 3750 | > 100 | 12.1 | CTIR2-15 (antibody, human IgG1, kappa, V domains shown, CDR-shuffled IgG) VH: EVQLVQSGAEVKKPGASVKVSCKASGYTFRGYAMHWVRQAPGQGLEWMGWIDPRTGLTKFPQKFQGRVTMTRDTSITTAYMDLSRLRSDDTAVYYCARESGDDAFDIWGQGTMVTVSS VL: DIVMTQSPSSLSASVGDRVTITCRASQKISSYLNWYQQKPGKAPKLLIYAASSLQYGVPSRFSGSGSGTDFTLTISSLQPEDFATYYCQQSVGLSFGGGTKVEIKR |
| 3970 | 7 | 5.2 | Abcs20 (antibody, human IgG1, kappa, V domains shown, chain-shuffled IgG) VH: EVQLVQSGAEVKKPGASVKVSCKASGYTFTGYYMHWVRQAPGQGLEWMGWINPKNGDTEFPQKFQGRVTMTRDTSITTAYMDLSRLRSDDTAVYYCARESGDDAFDIWGQGTMVTVSS VL: DIVMTQSPSSLSASVGDRVTITCRASQSISSYLNWYQQKPGKAPKLLIYAASSLQSGVPSRFSGSGSGTDFTLTISSLQPEDFATYYCQQSVGLSFGGGTKVEIKR |
| 3880 | 8.1 | 3.3 | Abcs25 (antibody, human IgG1, kappa, V domains shown, chain-shuffled IgG) VH: EVQLVQSGAEVKKPGASVKVSCKASGYTFTGYYMHWVRQAPGQGLEWMGWINPKDGDTEFPQKFQGRVTMTRDTSITTAYMDLSRLRSDDTAVYYCARESGDDAFDIWGQGTMVTVSS VL: DIVMTQSPSSLSASVGDRVTITCRASQSISSYLNWYQQKPGKAPKLLIYAASSLQSGVPSRFSGSGSGTDFTLTISSLQPEDFATYYCQQSVGLSFGGGTKVEIKR |
| 3390 | 9.3 | 4.8 | Abcs40 (antibody, human IgG1, kappa, V domains shown, chain-shuffled IgG) VH: EVQLVQSGAEVKKPGASVKVSCKASGYTFTGYYMHWVRQAPGQGLEWMGWINPKDGDTEFPQKFQGRVTMTRDTSITTAYMDLSRLRSDDTAVYYCARESGDDAFDIWGQGTMVTVSS VL: DIVMTQSPSSLSASVGDRVTITCRASQSISSYLNWYQQKPGKAPKLLIYAASSLQSGVPSRFSGSGSGTDFTLTISSLQPEDFATYYCQQSVGLFFGGGTKVEIKR |

| Binder | HTRF Ratio [1] | Fold Selectivity for RSK/KSR [2] [fold] | Fold Selectivity for ROBO2/ROBO1 [3] [fold] |
| --- | --- | --- | --- |
| Abcs35 (antibody, human IgG1, kappa, fully human IgG1; VH of Ab96 with VL of Ab123) heavy: EVQLVQSGAEVKKPGASVKVSCKASGYTFTGYYMHWVRQAPGQGLEWMGWINPKNGDTEFPQKFQGRVTMTRDTSITTAYMDLSRLRSDDTAVYYCARESGDDAFDIWGQGTMVTVSSASTKGPSVFPLAPSSKSTSGGTAALGCLVKDYFPEPVTVSWNSGALTSGVHTFPAVLQSSGLYSLSSVVTVPSSSLGTQTYICNVNHKPSNTKVDKKVEPKSCDKTHTCPPCPAPEAAGAPSVFLFPPKPKDTLMISRTPEVTCVVVDVSHEDPEVKFNWYVDGVEVHNAKTKPREEQYNSTYRVVSVLTVLHQDWLNGKEYKCKVSNKALPAPIEKTISKAKGQPREPQVYTLPPSREEMTKNQVSLTCLVKGFYPSDIAVEWESNGQPENNYKTTPPVLDSDGSFFLYSKLTVDKSRWQQGNVFSCSVMHEALHNHYTQKSLSLSPGK light: DIVMTQSPSSLSASVGDRVTITCRASQSISSYLNWYQQKPGKAPKLLIYAASSLQSGVPSRFSGSGSGTDFTLTISSLQPEDFATYYCQQSVGLFFGGGTKVEIKRTVAAPSVFIFPPSDEQLKSGTASVVCLLNNFYPREAKVQWKVDNALQSGNSQESVTEQDSKDSTYSLSSTLTLSKADYEKHKVYACEVTHQGLSSPVTKSFNRGEC | 3940 | 6.6 | 4.8 |
